In US20130230533A1 (Regeneron, published 2013):

Key:
Dimeric human CD48-mFc = target: T1, Dimeric human CD48-mFc (human); assay: SPR (Biacore), antibody captured by anti-Fc, CD48 in solution, 37 C
T1 construct: the whole entry is the construct; also called hCD48-mFc
T1 chain: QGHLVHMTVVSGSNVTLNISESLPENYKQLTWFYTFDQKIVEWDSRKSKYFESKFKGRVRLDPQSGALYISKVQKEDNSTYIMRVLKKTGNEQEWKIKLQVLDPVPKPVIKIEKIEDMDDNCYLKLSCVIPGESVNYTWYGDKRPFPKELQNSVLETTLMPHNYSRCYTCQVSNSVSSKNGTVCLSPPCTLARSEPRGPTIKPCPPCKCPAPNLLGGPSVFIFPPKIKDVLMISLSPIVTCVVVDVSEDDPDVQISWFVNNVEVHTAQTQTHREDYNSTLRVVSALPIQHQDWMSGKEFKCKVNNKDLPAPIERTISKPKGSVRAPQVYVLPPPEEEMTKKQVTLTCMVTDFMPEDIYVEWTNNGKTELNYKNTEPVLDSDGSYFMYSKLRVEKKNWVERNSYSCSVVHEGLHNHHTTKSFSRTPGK
Description: (§1) Measurements were conducted on a T100-2 BIACORE™ instrument (Biacore Life Sciences division of GE Healthcare, Piscataway, N.J.). Antibodies (either with mouse Fc [designated “H2M” or “H3M”] or human IgG4 Fc [designated “H4H”]) were captured through an anti-Fc chip surface, and CD48 was flowed over the surface either in a monomeric (soluble CD48 expressed with a myc-myc-hexa-histidine C-terminal tag [mmH]) or dimeric (soluble CD48 expressed with a C-terminal Fc fusion [mFc]) format.
(§2) The soluble CD48 was applied to the flow cell in separate injections at different concentrations, and kinetic association (kₐ) and dissociation (kd) rate constants were determined by fits to the kinetic binding data using Biacore software. Binding dissociation equilibrium constants and dissociation half-times were calculated from the kinetic rate constants as: KD=kd/kₐ; t_{1/2}=(ln 2/kd) (units: ka=M⁻¹*s⁻¹; kd=s⁻¹; KD=M; T½=min) (Tables 3-6).

Monomeric human CD48-mmH = target: T2, Monomeric human CD48-mmH (human); assay: as above
T2 chain: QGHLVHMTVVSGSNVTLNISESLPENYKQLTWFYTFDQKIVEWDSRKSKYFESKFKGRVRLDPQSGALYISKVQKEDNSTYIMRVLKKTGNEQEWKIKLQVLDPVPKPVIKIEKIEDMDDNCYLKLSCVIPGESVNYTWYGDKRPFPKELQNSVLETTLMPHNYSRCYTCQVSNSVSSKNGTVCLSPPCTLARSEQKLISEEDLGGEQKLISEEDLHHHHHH
Description: as §1, §2

[1] = target: T3, Monomeric monkey CD48-mmH (monkey); assay: as above
T3 construct: Soluble monkey CD48 with a myc-myc-hexa-histidine C-terminal tag; the whole entry is the construct; also called mfCD48-mmH
T3 chain: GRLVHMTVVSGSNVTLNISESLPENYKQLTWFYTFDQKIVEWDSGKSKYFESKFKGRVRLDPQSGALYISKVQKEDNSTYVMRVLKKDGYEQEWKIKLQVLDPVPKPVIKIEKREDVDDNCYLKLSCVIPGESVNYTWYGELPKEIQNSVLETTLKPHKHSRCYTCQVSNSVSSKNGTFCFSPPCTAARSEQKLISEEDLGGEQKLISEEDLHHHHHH
Description: as §1, §2

Dimeric monkey CD48-mFc [2] = target: T4, Dimeric monkey CD48-mFc (monkey); assay: as above
T4 construct: Soluble monkey CD48 with a C-terminal Fc fusion [mFc]; the whole entry is the construct
T4 chain: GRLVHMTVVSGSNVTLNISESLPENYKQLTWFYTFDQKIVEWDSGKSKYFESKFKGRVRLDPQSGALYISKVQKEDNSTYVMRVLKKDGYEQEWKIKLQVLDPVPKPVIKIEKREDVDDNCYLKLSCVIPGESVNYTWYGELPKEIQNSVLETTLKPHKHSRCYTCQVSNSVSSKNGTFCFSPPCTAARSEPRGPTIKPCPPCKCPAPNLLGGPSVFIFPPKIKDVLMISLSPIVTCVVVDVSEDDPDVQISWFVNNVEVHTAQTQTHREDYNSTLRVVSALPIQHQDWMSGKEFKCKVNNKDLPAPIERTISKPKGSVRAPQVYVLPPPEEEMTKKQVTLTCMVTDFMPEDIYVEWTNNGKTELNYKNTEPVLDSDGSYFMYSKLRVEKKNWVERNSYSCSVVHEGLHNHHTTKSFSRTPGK
Description: as §1, §2

[3] = target: T3, Monomeric monkey CD48-mmH; assay: SPR (Biacore), antibody captured by anti-Fc, CD48 in solution, 25 C
Description: as §1, §2

Dimeric monkey CD48-mFc [4] = target: T4, Dimeric monkey CD48-mFc; assay: as above
Description: as §1, §2

Binder	Kd (Dimeric human CD48-mFc) [nM]	T½ (Dimeric human CD48-mFc) [min]	koff (Dimeric human CD48-mFc) [s⁻¹]	kon (Dimeric human CD48-mFc) [M⁻¹ s⁻¹]	Kd (Monomeric human CD48-mmH) [nM]	T½ (Monomeric human CD48-mmH) [min]	koff (Monomeric human CD48-mmH) [s⁻¹]	kon (Monomeric human CD48-mmH) [M⁻¹ s⁻¹]	Kd [1] [nM]	T½ [1] [min]	koff [1] [s⁻¹]	kon [1] [M⁻¹ s⁻¹]	Kd (Dimeric monkey CD48-mFc [2]) [nM]	T½ (Dimeric monkey CD48-mFc [2]) [min]	koff (Dimeric monkey CD48-mFc [2]) [s⁻¹]	kon (Dimeric monkey CD48-mFc [2]) [M⁻¹ s⁻¹]	Kd [3] [nM]	T½ [3] [min]	koff [3] [s⁻¹]	kon [3] [M⁻¹ s⁻¹]	also measured
H2M1712N (antibody, mouse IgG2, V domains shown, Human variable domains, mouse IgG2 Fc (H2M)) VH: QIQLVQSGAEMKRPGTSVKVSCKASGYTFSSYGINWVRQAPGQGLEWMGWISAYNGDTNYAQKLQGRVTMTTDTSTTTAYMEVRSLRSDDTAVYYCARFLTGTKDLYYGMDVWGQGTTVTVSS VL: DIQMTQSPSSLSASVGDRVTITCQASQDISNFLNWYQQKPGKAPDLLINDASILETGVPSRFSGSGSGTDFTLTINSLQPEDIATYYCQQYDNLPLTFGGGTKVEIK	0.252	17	0.000685	2.72e+06	16.6	1	0.014	846000													
H4H1763N (antibody, V domains shown, Human IgG4 Fc (H4H)) VH: QIQLVQSGAEMKRPGTSVKVSCKASGYTFTSYGINWVRQAPGQGLEWMGWISAYNGDTNYAQKLQGRVTMTTDTSTTTAYMEVRSLRSDDTAVYYCARFLTGTKDYYYGMDVWGQGTTVTVSS VL: DIQMTQSPSSLSASVGDRVTITCQASQDISNFLNWYQQKPGKAPDLLINDASILETGVPSRFSGSGSGTDFTLTINNLQPEDIATYYCQQYDNLPLTFGGGTKVEIK	0.0267	184	6.28e-05	2.35e+06	12.7	1	0.0169	1.33e+06	2.49	9	0.00133	534000	0.047	101	0.000114	2.42e+06	2.34	9	0.00124	527000	Kd (Dimeric monkey CD48-mFc [4]): 0.0519 nM; T½ (Dimeric monkey CD48-mFc [4]): 168 min; koff (Dimeric monkey CD48-mFc [4]): 6.88e-05 s⁻¹; kon (Dimeric monkey CD48-mFc [4]): 1.33e+06 M⁻¹ s⁻¹
H2M1811N (antibody, mouse IgG2, V domains shown, Human variable domains, mouse IgG2 Fc (H2M)) VH: QVQLVQSGAEAREPGASVRVSCKASGYTFTDYFIHWVRQAPGQGLEWMGWINPNSGATNFAQKFQGRVTMTRDTSLITAYMDLSRLKSDDAAVFYCARDVDGSGWYLDFWGQGTLVTVSS VL: EIVLTQSPATLSLSPGERATLSCRASQSVSIYLAWYQQKPGQAPRLLIYDASNRATGIPARFSGSGSGTDFTLTISRLEPEDFAVYYCQQRSDWPPSITFGQGTRLEIK	0.966	45	0.000256	265000	22.7	4	0.00295	130000													
H3M1766N (antibody, V domains shown, Human variable domains, mouse Fc (H3M); also called H2M1766N) VH: EVQLVESGGGLAQPGGSLRLSCAASGFTFSSYEMNWVRQAPGKGLEWVSYITTSGSTIYYADSVKGRFTMSRDNAKKSLYLEMNSLRAEDTAVYYCAREECTNGVCYKDYQYYGMDVWGQGTTVTVSS VL: DIQMTQSPSSVSASVGDRVTITCRASQNINTWLAWYQQKPGKVPKLLIYAASSLQSGVPSRFSGSGSGTDFTLTISSLQPEDFATYYCQQANSFPLTFGGGTKVEIK	0.342	36	0.000324	949000	3.84	19	0.00062	161000													
H2M1764N (antibody, mouse IgG2, V domains shown, Human variable domains, mouse IgG2 Fc (H2M)) VH: QVQLVESGGGVVQPGRSLRLSCAASGFTFSDYGMHWVRQAPGKGLEWVAVIWNDGSNKNYADSVKGRFSISSDSSKNTLYLHMNSLRAEDTAVYYCARSLYSTSPWYFDLWGRGTLVTVSS VL: not shown	0.586	28	0.000412	702000	94.7	1	0.016	169000													
H4H1764N (antibody, V domains shown, Human IgG4 Fc (H4H)) VH: QVQLVESGGGVVQPGRSLRLSCAASGFTFSDYGMHWVRQAPGKGLEWVAVIWNDGSNKNYADSVKGRFSISSDSSKNTLYLHMNSLRAEDTAVYYCARSLYSTSPWYFDLWGRGTLVTVSS VL: not shown	0.33	116	9.94e-05	301000	109	1	0.0114	105000	2.91	19	0.00062	213000	7.4	8	0.00142	192000	2.34	56	0.000206	87700	Kd (Dimeric monkey CD48-mFc [4]): 0.525 nM; T½ (Dimeric monkey CD48-mFc [4]): 88 min; koff (Dimeric monkey CD48-mFc [4]): 0.000132 s⁻¹; kon (Dimeric monkey CD48-mFc [4]): 251000 M⁻¹ s⁻¹
H4H1707N (antibody, V domains shown, Human IgG4 Fc (H4H)) VH: EGQLLESGGGLAQPGGSLRLSCAASGITFGRYAMSWVRQAPGKGLEWVSLISGSGGSTYHADSVKGRFTISRDNSKNTLYLQMNSLRAEDTAVYYCAIYNNYNWFDPWGQGTLVTVSS VL: EIVLTQSPGTLSLSPGERATLSCRASQSVSSNYLAWYQQKPGQAPRLLIYDASSRATDIPDRFSGSGSGTDFTLTISRLEPEDFAVYYCQQYGSSPRTFGQGTKVEIK	0.0654	180	6.42e-05	981000	9.63	4	0.00273	284000	3.72	9	0.00122	327000	3.2	2	0.00524	1.64e+06	1.25	32	0.000362	289000	Kd (Dimeric monkey CD48-mFc [4]): 1.48 nM; T½ (Dimeric monkey CD48-mFc [4]): 10 min; koff (Dimeric monkey CD48-mFc [4]): 0.00119 s⁻¹; kon (Dimeric monkey CD48-mFc [4]): 805000 M⁻¹ s⁻¹
H2M1713N (antibody, mouse IgG2, V domains shown, Human variable domains, mouse IgG2 Fc (H2M)) VH: QVQLVQSGAEVKKPGASVKVSCKASGHTFTNYYIHWVRQAPGQGLEWMGITNPNDGNTRYAQKFQGRISMTWDTSTSTVFMELSSLKSEDTAVYYCAGLRYWFFDLWGRGTPVTVSS VL: DIQMTQSPSSVSASVGDRVTITCRASQDISSWLAWYQQKPGKAPNLLIFAASSLQSGVPSRFSGSGSGTDFTLTISSLQPEDFGTYYCQQTDNFPRTFGQGTKVEIN	0.0663	140	8.27e-05	1.25e+06	2.74	18	0.000644	235000													
H4H1713N (antibody, V domains shown, Human IgG4 Fc (H4H)) VH: QVQLVQSGAEVKKPGASVKVSCKASGHTFTNYYIHWVRQAPGQGLEWMGITNPNDGNTRYAQKFQGRISMTWDTSTSTVFMELSSLKSEDTAVYYCAGLRYWFFDLWGRGTPVTVSS VL: DIQMTQSPSSVSASVGDRVTITCRASQDISSWLAWYQQKPGKAPNLLIFAASSLQSGVPSRFSGSGSGTDFTLTISSLQPEDFGTYYCQQTDNFPRTFGQGTKVEIN	0.036	255	4.53e-05	1.26e+06	2.23	18	0.000636	286000	1.19	30	0.000382	320000	0.3	22	0.000516	1.72e+06	0.843	44	0.000265	315000	Kd (Dimeric monkey CD48-mFc [4]): 0.281 nM; T½ (Dimeric monkey CD48-mFc [4]): 48 min; koff (Dimeric monkey CD48-mFc [4]): 0.000242 s⁻¹; kon (Dimeric monkey CD48-mFc [4]): 861000 M⁻¹ s⁻¹
